How the values were obtained:
[1] = Indirect calorimetry: VO2, VCO2, EE, RER (METABOpack sessions); type: in vivo, CD-1 mice
Method: The Physiocage System allows recording the O2 consumption (VO2) and the CO2 production (VCO2) by indirect calorimetry. For each animal, both VO2 and VCO2 were recorded for 3 min every 30 minutes and the mean values were calculated by the system.
Energy Expenditure (EE) and Respiratory Exchange Ratio (RER) were calculated with formulas that are based on VO2 and VCO2 values: […]
Analysis of these parameters was performed as follows: for each mouse, the mean values were calculated from the corresponding recordings for each nycthemeral phase (Diurnal Phase or DP, Nocturnal Phase or NP and Whole day or WD). The means per nycthemeral phase were then calculated for each group for statistical comparisons.

[2] = Semi-fasted blood glucose (4 hours of fasting); type: in vivo, CD-1 mice
[3] = T1, whatever the dose, vs vehicle
[4] = T2, DP and WD, whatever the dose, vs Liraglutide
[5] = T2, whatever the dose, vs vehicle
[6] = T14, DP, 3 mg/kg, vs Liraglutide
[7] = T14, NP and WD, whatever the dose, vs Liraglutide
[8] = T14, NP and WD, whatever the dose, vs vehicle
[9] = T14, between the three 89BIO-100 groups
[10] = T15, NP and WD, 1 and 3 mg/kg, vs vehicle
[11] = T15, between the three 89BIO-100 groups
[12] = T15, whatever the phase, 1 and 3 mg/kg, vs Liraglutide
[13] = T27, NP, whatever the dose, vs vehicle
[14] = T27, WD, 0.3 and 1 mg/kg, vs Liraglutide
[15] = T27, WD, 0.3 and 1 mg/kg, vs vehicle
[16] = T27, between the three 89BIO-100 groups

B1: Mutant FGF21-GalNAc-SA-PEG-20 kDa (conjugate)
chain: MHPIPDSSPLLQFGGQVRQRYLYTDDAQQTEAHLEIREDGTVGGAADQSPESLLQLKALKPGVIQILGVKTSRFLCQRPDGALYGSLHFDPEACSFRELLLEDGYNVYQSEAHGLPLHLPGNKSPHRDPAPRGPARFLPLPGLPPALPEPPGILAPQPPDVGSSDPLSMVGPTQGASPSYAS
RER ([1]; T1, NP and WD, whatever the dose, vs Liraglutide): increase in RER
VCO2 ([1]; T1, NP, whatever the dose, vs Liraglutide): increase in VCO2
RER ([1]; T1, between 89BIO-100 groups): no significant difference
VCO2 ([1]; T1, between all 89BIO-100 groups): no significant difference
RER [1, 3]: No significant difference
VCO2 [1, 3]: No significant difference
EE [1, 4]: increase in EE
VO2 [1, 4]: increase in VO2
EE ([1]; T2, between 89BIO-100 groups): no significant difference
VO2 ([1]; T2, between the three 89BIO-100 groups): no significant difference
EE [1, 5]: No significant difference
VO2 [1, 5]: No significant difference
EE [1, 6]: increased
VO2 [1, 6]: increased
EE ([1]; T14, DP, 3 mg/kg, vs vehicle): increased
VO2 ([1]; T14, DP, 3 mg/kg, vs vehicle): increased
EE [1, 7]: increase in EE
RER [1, 7]: decrease in RER
VO2 [1, 7]: increase in VO2
EE [1, 8]: increased
VO2 [1, 8]: increased
VCO2 ([1]; T14, NP, whatever the dose, vs Liraglutide): increase in VCO2
VCO2 ([1]; T14, NP, whatever the dose, vs vehicle): increased
VCO2 ([1]; T14, WD, 1 and 3 mg/kg, vs Liraglutide): increased
VCO2 ([1]; T14, WD, 1 and 3 mg/kg, vs vehicle): increased
EE [1, 9]: no significant difference
VCO2 [1, 9]: no significant difference
VO2 [1, 9]: no significant difference
RER ([1]; T14, whatever the dose, vs vehicle): No significant difference
EE ([1]; T15, DP, 1 mg/kg, vs vehicle): increased
VCO2 ([1]; T15, DP, 1 mg/kg, vs vehicle): increased
VO2 ([1]; T15, DP, 1 mg/kg, vs vehicle): increased
EE [1, 10]: increased
VCO2 [1, 10]: increased
VO2 [1, 10]: increased
EE [1, 11]: no significant difference
VCO2 [1, 11]: no significant difference
VO2 [1, 11]: no significant difference
EE [1, 12]: increase in EE
VCO2 [1, 12]: increase in VCO2
VO2 [1, 12]: increase in VO2
VCO2 ([1]; T27, NP and WD, 0.3 and 1 mg/kg, vs vehicle): increased
VCO2 ([1]; T27, NP and WD, dose of 1, vs Liraglutide): increase in VCO2
VO2 ([1]; T27, NP, 1 and 3 mg/kg, vs Liraglutide): increase in VO2
EE ([1]; T27, NP, dose of 1, vs Liraglutide): increase in EE
EE [1, 13]: increased
VO2 [1, 13]: increased
EE [1, 14]: increased
VO2 [1, 14]: increase in VO2
EE [1, 15]: increased
VO2 [1, 15]: increased
EE [1, 16]: no significant difference
VCO2 [1, 16]: no significant difference
VO2 [1, 16]: no significant difference
thermogenesis ([1]; concluded from energy expenditure effects): increased
energy expenditure ([1]; summary, second (T14/T15) and third (T27) METABOpack session, vs Vehicle): increase in energy expenditure
blood glucose levels ([2]; T3 and T16, between 89BIO-treated groups): no significant difference
blood glucose levels ([2]; T3 and T16, whatever the dose, vs Liraglutide): higher blood glucose levels
blood glucose levels ([2]; T3 and T16, whatever the dose, vs vehicle): did not alter
blood glucose levels ([2]; T28, 3 mg/kg, vs 0.3 and 1 mg/kg): higher blood glucose levels
blood glucose levels ([2]; T28, 3 mg/kg, vs vehicle): significant increase in blood glucose levels
blood glucose levels ([2]; T29 (so in the source), 0.3 and 3 mg/kg, vs Liraglutide): increased
hypoglycemic action ([2]; wild-type CD-1 mice, in contrast to Liraglutide (summary)): did not have a hypoglycemic action

— patent US20230090114A1, “METHODS FOR PROMOTING WEIGHT LOSS” (89BIO LTD., priority 2020, published 2023)
